Assay results published in article PMC9482650, “Quantitative fragmentomics allow affinity mapping of interactomes” (Nature Communications, 2022).

Legend:
Assay in all cases: holdup assay
Design in all cases: key: below the threshold = too weak to quantify, mostly under pKd 3.1 to 4
[1] = biological target: GRID2IP_1, A4D2P6
[2] = biological target: T1, SNTG1, Q9NSN8
T1 sequence (Q9NSN8 52-150, limits assumed, looked up): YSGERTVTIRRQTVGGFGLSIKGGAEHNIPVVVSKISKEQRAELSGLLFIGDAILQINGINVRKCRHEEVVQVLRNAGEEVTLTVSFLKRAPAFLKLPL

[3] = biological target: GRASP, Q7Z6J2
[4] = biological target: T2, MPDZ_10, O75970
T2 sequence (O75970 1624-1722, limits assumed, looked up): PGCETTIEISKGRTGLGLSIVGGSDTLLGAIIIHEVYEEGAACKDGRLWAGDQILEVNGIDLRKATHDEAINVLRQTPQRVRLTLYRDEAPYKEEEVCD

[5] = biological target: T3, FRMPD1, Q5SYB0
T3 sequence (Q5SYB0 52-145, limits assumed, looked up): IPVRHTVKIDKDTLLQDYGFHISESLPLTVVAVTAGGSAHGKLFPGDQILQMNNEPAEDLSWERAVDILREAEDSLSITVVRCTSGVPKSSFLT

[6] = biological target: T4, HTRA4, P83105
T4 sequence (P83105 378-476, limits assumed, looked up): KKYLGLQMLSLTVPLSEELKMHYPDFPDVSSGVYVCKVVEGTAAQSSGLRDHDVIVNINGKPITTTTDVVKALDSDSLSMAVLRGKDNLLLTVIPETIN

[7] = biological target: T5, TIAM2, Q8IVF5
T5 sequence (Q8IVF5 885-986, limits assumed, looked up): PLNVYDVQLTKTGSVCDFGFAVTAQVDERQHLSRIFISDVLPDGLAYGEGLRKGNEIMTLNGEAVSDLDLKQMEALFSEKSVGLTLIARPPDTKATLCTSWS

[8] = biological target: T6, PDZD7_3, Q9H5P4
T6 sequence (Q9H5P4 857-944, limits assumed, looked up): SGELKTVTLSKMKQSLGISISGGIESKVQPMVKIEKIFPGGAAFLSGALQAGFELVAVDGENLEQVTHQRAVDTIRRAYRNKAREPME

[9] = biological target: NHERF4_4, Q86UT5
[10] = biological target: LAP2, Q96RT1
[11] = biological target: T7, SYNJ2BP, P57105
T7 sequence (P57105 8-110, limits assumed, looked up): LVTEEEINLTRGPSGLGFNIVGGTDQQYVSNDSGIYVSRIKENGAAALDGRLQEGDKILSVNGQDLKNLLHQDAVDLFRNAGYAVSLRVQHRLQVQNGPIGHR

[12] = biological target: SNX27, Q96L92
[13] = biological target: T8, SNTB1, Q13884
T8 sequence (Q13884 107-205, limits assumed, looked up): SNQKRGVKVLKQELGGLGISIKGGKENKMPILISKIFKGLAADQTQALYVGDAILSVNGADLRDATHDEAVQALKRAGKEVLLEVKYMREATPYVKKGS

[14] = biological target: FRMPD2_1, Q68DX3
[15] = biological target: MAGI2_2, Q86UL8
[16] = biological target: T9, TJP3_3, O95049
T9 sequence (O95049 375-456, limits assumed, looked up): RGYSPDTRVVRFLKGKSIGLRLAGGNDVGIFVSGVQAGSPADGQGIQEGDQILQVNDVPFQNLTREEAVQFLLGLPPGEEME

[17] = biological target: SCRIB_1, Q14160
[18] = biological target: T10, GRIP1_4, Q9Y3R0
T10 sequence (Q9Y3R0 467-571, limits assumed, looked up): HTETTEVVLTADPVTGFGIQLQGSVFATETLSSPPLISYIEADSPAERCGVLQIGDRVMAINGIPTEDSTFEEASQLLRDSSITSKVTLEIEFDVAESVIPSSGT

[19] = biological target: T11, PARD3B_1, Q8TEW8
T11 sequence (Q8TEW8 196-299, limits assumed, looked up): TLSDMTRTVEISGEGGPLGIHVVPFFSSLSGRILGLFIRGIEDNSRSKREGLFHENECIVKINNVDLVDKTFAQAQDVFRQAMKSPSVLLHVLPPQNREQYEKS

[20] = biological target: T12, SNTG2, Q9NY99
T12 sequence (Q9NY99 68-166, limits assumed, looked up): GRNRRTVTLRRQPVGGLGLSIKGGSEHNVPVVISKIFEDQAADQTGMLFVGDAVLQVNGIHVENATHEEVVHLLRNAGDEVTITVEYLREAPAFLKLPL

[21] = biological target: LNX1_3, Q8TBB1
[22] = biological target: DLG4_2, P78352
[23] = biological target: MAGI1_2, Q96QZ7
[24] = biological target: MAGI2_4, Q86UL8
[25] = biological target: DLG4_3, P78352
[26] = biological target: DLG4_1, P78352
[27] = plain residues with an end cap or a label only (N-terminal biotin on a linker: ttds)
[28] = plain residues with an end cap or a label only (N-terminal biotin on a linker: ado-ado)
[29] = plain residues with an end cap or a label only (N-terminal biotin on a linker: ahx)

Chain of NHERF4_4, Q86UT5 (Q86UT5 464-550): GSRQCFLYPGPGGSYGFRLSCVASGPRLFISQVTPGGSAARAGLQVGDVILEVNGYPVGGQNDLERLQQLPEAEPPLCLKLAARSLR
Chain of MAGI2_2, Q86UL8 (Q86UL8 410-522): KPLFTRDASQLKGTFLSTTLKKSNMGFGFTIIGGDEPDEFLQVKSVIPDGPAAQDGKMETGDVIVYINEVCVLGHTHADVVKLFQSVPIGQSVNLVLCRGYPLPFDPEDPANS
Chain of GRID2IP_1, A4D2P6 (A4D2P6 1-87): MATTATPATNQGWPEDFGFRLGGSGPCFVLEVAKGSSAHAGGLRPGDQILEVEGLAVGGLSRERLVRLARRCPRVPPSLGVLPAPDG
Chain of LAP2, Q96RT1 (Q96RT1 other isoform, or with tags, fused parts or gaps): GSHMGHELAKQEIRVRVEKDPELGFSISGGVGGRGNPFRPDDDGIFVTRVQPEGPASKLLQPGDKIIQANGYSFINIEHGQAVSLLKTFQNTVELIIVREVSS
Chain of SCRIB_1, Q14160 (Q14160 718-814): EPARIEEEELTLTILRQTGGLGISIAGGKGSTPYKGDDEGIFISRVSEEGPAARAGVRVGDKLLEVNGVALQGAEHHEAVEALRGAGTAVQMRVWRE
Chain of DLG4_1, P78352 (P78352 62-152): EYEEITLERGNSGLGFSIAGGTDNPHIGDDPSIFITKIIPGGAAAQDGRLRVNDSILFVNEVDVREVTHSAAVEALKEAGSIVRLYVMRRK
Chain of GRASP, Q7Z6J2 (Q7Z6J2 96-193): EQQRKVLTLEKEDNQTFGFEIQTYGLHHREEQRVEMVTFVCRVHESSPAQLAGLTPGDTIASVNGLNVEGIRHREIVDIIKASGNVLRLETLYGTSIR
Chain of LNX1_3, Q8TBB1 (Q8TBB1 500-596): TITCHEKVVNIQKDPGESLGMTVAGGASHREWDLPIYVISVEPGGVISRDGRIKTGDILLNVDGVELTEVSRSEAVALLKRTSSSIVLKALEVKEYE
Chain of MAGI2_4, Q86UL8 (Q86UL8 772-865): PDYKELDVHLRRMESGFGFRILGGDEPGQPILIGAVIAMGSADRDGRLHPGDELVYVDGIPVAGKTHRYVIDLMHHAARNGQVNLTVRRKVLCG
Chain of DLG4_2, P78352 (P78352 155-259): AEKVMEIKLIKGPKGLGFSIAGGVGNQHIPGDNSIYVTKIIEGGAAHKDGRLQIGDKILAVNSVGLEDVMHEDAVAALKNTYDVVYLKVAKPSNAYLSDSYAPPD
Chain of FRMPD2_1, Q68DX3 (Q68DX3 770-861): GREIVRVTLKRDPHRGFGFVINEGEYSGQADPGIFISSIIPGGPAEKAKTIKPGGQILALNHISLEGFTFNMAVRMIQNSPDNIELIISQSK
Chain of MAGI1_2, Q96QZ7 (Q96QZ7 456-580): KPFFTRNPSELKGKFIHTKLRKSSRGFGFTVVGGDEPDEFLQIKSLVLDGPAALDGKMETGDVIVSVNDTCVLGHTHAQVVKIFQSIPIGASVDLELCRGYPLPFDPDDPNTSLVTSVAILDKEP
Chain of DLG4_3, P78352 (P78352 306-403): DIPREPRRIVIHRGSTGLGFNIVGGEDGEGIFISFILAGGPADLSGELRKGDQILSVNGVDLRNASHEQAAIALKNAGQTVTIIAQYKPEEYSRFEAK

B1: GRASP, Q7Z6J2 (peptide)
chain: RSLEEEESQL
pKd [1, 27]: below the threshold | pKd [2, 27]: 3.86 | pKd [3, 27]: 3.99 | pKd [4, 27]: below the threshold | pKd [5, 27]: 3.71 | pKd [6, 27]: below the threshold | pKd [7, 27]: below the threshold | pKd [8, 27]: 3.98 | pKd [9, 27]: below the threshold | pKd [10, 27]: 3.69 | pKd [11, 27]: 3.86 | pKd [12, 27]: 5.69 | pKd [13, 27]: 3.89 | pKd [14, 27]: below the threshold | pKd [15, 27]: below the threshold | pKd [16, 27]: 3.65 | pKd [17, 27]: 3.55 | pKd [18, 27]: 3.5 | pKd [19, 27]: 4.28 | pKd [20, 27]: below the threshold | pKd [21, 27]: below the threshold | pKd [22, 27]: 3.84 | pKd [23, 27]: below the threshold | pKd [24, 27]: 3.7 | pKd [25, 27]: 3.75 | pKd [26, 27]: 3.63

B2: CYSLTR2, Q9NS75 (peptide)
chain: SVWLRKETRV
pKd [1, 27]: below the threshold | pKd [2, 27]: 4.43 | pKd [3, 27]: below the threshold | pKd [4, 27]: 3.92 | pKd [5, 27]: below the threshold | pKd [6, 27]: 3.38 | pKd [7, 27]: below the threshold | pKd [8, 27]: 4.86 | pKd [9, 27]: below the threshold | pKd [10, 27]: 4.15 | pKd [11, 27]: 5.38 | pKd [12, 27]: 4.95 | pKd [13, 27]: 5.5 | pKd [14, 27]: 4.15 | pKd [15, 27]: 5.68 | pKd [16, 27]: 3.37 | pKd [17, 27]: 4.28 | pKd [18, 27]: below the threshold | pKd [19, 27]: below the threshold | pKd [20, 27]: 5.09 | pKd [21, 27]: 3.46 | pKd [22, 27]: 5.38 | pKd [23, 27]: 5.63 | pKd [24, 27]: 4.06 | pKd [25, 27]: 6.55 | pKd [26, 27]: 4.92

B3: LRP4, O75096 (peptide)
chain: ERKLSSESQV
pKd [1, 27]: below the threshold | pKd [2, 27]: 4.37 | pKd [3, 27]: below the threshold | pKd [4, 27]: below the threshold | pKd [5, 27]: below the threshold | pKd [6, 27]: below the threshold | pKd [7, 27]: below the threshold | pKd [8, 27]: below the threshold | pKd [9, 27]: below the threshold | pKd [10, 27]: 3.74 | pKd [11, 27]: 4.78 | pKd [12, 27]: 4.75 | pKd [13, 27]: 4.05 | pKd [14, 27]: below the threshold | pKd [15, 27]: 4.79 | pKd [16, 27]: below the threshold | pKd [17, 27]: 3.63 | pKd [18, 27]: below the threshold | pKd [19, 27]: below the threshold | pKd [20, 27]: 4.1 | pKd [21, 27]: below the threshold | pKd [22, 27]: 4.69 | pKd [23, 27]: 4.01 | pKd [24, 27]: 3.83 | pKd [25, 27]: below the threshold | pKd [26, 27]: 4.17

B4: MUC3B, MUC3A, Q02505;Q9H195 (peptide)
chain: KRPEMTSSSV
pKd [3, 28]: 4 | pKd [5, 28]: below the threshold | pKd [8, 28]: below the threshold | pKd [9, 28]: below the threshold | pKd [10, 28]: 1.89 | pKd [12, 28]: 5.03 | pKd [14, 28]: below the threshold | pKd [17, 28]: below the threshold | pKd [18, 28]: below the threshold | pKd [20, 28]: 3.9 | pKd [23, 28]: below the threshold

B5: NF2, P35240 (peptide)
chain: KSRVAFFEEL
pKd [12, 28]: 3.7 | pKd [13, 28]: 3.54 | pKd [17, 28]: 3.64 | pKd [19, 28]: 3.83 | pKd [20, 28]: 3.74 | pKd [21, 28]: 3.61 | pKd [22, 28]: 3.78 | pKd [23, 28]: 3.53 | pKd [24, 28]: 3.83 | pKd [25, 28]: 3.52 | pKd [26, 28]: 3.63

B6: HPV67-E6, A4U7F2 (peptide)
chain: SRPQRTQTQV
pKd [1, 27]: below the threshold | pKd [2, 27]: below the threshold | pKd [3, 27]: below the threshold | pKd [4, 27]: 3.4 | pKd [5, 27]: below the threshold | pKd [6, 27]: below the threshold | pKd [7, 27]: below the threshold | pKd [8, 27]: 3.65 | pKd [9, 27]: below the threshold | pKd [10, 27]: below the threshold | pKd [11, 27]: 4.4 | pKd [12, 27]: 3.98 | pKd [13, 27]: below the threshold | pKd [14, 27]: 3.79 | pKd [15, 27]: 5.32 | pKd [16, 27]: below the threshold | pKd [17, 27]: below the threshold | pKd [18, 27]: below the threshold | pKd [19, 27]: below the threshold | pKd [20, 27]: 3.98 | pKd [21, 27]: below the threshold | pKd [22, 27]: 4.96 | pKd [23, 27]: 5.22 | pKd [24, 27]: 4.14 | pKd [25, 27]: 4.23 | pKd [26, 27]: 4.58

B7: CNKSR2, Q8WXI2 (peptide)
chain: HTHSYIETHV
pKd [1, 29]: below the threshold | pKd [2, 29]: 4.9 | pKd [3, 29]: 3.47 | pKd [4, 29]: below the threshold | pKd [5, 29]: below the threshold | pKd [6, 29]: 3.9 | pKd [7, 29]: 3.81 | pKd [8, 29]: 4.51 | pKd [9, 29]: below the threshold | pKd [10, 29]: 5.51 | pKd [11, 29]: 5.02 | pKd [12, 29]: 5.7 | pKd [13, 29]: 4.6 | pKd [14, 29]: below the threshold | pKd [15, 29]: 4.37 | pKd [16, 29]: below the threshold | pKd [17, 29]: 5.64 | pKd [18, 29]: below the threshold | pKd [19, 29]: below the threshold | pKd [20, 29]: 4.67 | pKd [21, 29]: below the threshold | pKd [22, 29]: 4.98 | pKd [23, 29]: 3.9 | pKd [24, 29]: below the threshold | pKd [25, 29]: 3.74 | pKd [26, 29]: 4.4
